Measured values from patent US20260250418A1 (BIOCYTOGEN PHARMACEUTICALS BEIJING, published 2026).

T1: monkey (Macaca fascicularis) HER3 on CHO-fasHER3 cells (monkey (Macaca fascicularis), UniProt P21860 20-643 (human entry))
T1 construct: CHO-S cells transfected with fasHER3
T1 chain: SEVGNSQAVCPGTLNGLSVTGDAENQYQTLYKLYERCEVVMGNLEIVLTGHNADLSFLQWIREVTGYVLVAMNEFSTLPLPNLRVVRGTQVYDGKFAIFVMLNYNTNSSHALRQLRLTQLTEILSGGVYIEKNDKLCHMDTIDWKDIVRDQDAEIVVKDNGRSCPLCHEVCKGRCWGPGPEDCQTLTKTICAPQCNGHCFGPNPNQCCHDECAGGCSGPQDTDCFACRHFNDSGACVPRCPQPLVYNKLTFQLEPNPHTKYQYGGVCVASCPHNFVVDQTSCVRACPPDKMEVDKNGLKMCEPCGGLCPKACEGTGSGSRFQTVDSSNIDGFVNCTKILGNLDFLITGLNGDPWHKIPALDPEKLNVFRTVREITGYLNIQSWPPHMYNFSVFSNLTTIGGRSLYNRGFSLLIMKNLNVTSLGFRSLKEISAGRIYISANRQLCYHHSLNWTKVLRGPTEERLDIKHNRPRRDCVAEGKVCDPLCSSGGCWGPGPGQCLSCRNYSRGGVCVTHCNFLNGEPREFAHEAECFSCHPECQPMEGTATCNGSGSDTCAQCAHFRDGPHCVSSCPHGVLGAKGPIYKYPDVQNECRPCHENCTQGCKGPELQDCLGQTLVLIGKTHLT


Assays:
[1] = biological target: T2, human HER3 on CHO-hHER3 cells (human, UniProt P21860 20-643); test: flow cytometry, transfected CHO cells
T2 construct: CHO-S cells transfected with hHER3
Method: (§1) Specifically, CHO-hHER3 cells, CHO-fasHER3 cells, NIH3T3-hMET cells or NIH3T3-fasMET cells were transferred to a 96-well plate at a density of 5×10⁴ cells/well respectively. The antibodies were added to the 96-well plate, and incubated at 4° C. for 30 min.

[2] = biological target: T1, monkey (Macaca fascicularis) HER3 on …; test: flow cytometry, transfected CHO cells
Method: as §1

[3] = biological target: T3, human MET on NIH3T3-hMET cells (human, UniProt P08581 25-1390); test: flow cytometry, transfected NIH3T3 cells
T3 construct: NIH3T3 cells transfected with a plasmid expressing hMET
T3 sequence (P08581 25-1390 limits assumed): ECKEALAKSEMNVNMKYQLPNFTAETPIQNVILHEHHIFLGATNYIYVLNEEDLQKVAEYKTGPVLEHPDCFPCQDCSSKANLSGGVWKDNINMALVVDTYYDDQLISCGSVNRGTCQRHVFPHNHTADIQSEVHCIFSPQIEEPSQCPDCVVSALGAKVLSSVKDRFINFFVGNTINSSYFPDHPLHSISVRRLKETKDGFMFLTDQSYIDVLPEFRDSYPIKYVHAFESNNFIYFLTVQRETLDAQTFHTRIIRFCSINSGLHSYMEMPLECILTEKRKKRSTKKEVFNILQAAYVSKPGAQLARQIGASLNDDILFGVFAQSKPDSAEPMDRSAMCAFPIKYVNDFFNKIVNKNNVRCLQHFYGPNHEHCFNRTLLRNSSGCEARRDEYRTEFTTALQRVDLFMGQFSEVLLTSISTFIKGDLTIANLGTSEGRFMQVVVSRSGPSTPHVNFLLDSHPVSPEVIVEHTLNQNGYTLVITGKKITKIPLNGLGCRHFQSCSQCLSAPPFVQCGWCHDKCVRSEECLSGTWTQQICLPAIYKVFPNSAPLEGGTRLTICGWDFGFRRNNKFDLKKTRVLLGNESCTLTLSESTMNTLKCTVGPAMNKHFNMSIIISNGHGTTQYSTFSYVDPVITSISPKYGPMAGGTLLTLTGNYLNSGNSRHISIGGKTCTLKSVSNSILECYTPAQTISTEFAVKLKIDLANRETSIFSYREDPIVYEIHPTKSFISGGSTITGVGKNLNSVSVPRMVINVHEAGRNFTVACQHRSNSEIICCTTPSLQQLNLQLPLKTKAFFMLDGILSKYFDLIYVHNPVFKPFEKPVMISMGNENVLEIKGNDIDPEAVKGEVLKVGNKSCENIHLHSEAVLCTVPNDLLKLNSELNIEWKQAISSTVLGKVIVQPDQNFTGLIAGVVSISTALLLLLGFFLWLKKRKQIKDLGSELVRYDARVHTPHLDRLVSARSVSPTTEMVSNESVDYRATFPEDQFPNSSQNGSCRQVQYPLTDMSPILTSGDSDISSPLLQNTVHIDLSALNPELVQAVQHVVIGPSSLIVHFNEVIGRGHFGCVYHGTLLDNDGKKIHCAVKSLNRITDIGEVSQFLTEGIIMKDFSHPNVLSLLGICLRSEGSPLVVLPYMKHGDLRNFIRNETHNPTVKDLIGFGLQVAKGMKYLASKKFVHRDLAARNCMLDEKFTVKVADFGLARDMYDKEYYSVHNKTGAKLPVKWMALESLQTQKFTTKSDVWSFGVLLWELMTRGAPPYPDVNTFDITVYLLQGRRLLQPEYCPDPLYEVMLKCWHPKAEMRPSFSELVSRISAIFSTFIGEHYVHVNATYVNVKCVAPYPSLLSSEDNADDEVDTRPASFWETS
Method: as §1

[4] = biological target: T4, monkey MET on NIH3T3-fasMET cells (monkey, UniProt A0M8R7 25-1381); test: flow cytometry, transfected NIH3T3 cells
T4 construct: NIH3T3 cells transfected with a plasmid expressing fasMET
T4 sequence (A0M8R7 25-1381 S170N/I621T limits assumed): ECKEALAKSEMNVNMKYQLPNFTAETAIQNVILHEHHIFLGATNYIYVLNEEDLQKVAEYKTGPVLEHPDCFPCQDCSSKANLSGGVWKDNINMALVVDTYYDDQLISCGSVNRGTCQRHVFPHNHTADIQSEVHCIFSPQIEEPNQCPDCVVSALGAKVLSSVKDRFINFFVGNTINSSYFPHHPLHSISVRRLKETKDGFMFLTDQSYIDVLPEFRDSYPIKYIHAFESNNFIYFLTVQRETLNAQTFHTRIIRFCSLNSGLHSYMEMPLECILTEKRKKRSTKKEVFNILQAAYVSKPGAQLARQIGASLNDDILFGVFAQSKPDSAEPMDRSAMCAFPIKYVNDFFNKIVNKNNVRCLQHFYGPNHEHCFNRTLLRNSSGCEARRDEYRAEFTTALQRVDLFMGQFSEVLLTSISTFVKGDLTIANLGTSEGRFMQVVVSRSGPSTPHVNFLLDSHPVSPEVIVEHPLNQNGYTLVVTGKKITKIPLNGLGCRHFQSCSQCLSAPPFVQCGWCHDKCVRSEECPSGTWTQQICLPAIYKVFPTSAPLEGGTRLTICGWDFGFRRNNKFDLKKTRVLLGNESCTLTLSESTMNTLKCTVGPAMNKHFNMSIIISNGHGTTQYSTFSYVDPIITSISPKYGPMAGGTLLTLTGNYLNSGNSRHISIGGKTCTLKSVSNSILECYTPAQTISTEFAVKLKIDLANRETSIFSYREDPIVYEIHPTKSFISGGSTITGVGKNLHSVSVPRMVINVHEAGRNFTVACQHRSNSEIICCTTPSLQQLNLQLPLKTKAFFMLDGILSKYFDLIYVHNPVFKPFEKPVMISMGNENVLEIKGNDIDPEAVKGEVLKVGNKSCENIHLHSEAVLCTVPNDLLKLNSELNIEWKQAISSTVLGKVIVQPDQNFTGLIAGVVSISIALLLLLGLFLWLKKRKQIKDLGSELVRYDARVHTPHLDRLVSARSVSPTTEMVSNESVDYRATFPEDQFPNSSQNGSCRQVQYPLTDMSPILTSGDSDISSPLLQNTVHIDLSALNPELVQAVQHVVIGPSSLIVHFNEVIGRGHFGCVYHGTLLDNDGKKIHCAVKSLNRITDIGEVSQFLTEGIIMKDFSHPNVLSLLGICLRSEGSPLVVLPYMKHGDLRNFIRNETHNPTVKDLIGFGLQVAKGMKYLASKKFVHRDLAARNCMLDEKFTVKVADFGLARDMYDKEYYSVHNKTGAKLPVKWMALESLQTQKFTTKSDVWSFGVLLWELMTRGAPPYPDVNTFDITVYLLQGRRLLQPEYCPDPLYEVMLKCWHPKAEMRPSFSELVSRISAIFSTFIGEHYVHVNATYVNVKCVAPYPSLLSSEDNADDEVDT
Method: as §1

[5] = biological target: T5, His-tagged human HER3 protein (hHER3, ACRO Biosystems Inc., Cat #: ER3-H5223) (human, UniProt P21860 20-643); test: SPR, Ab captured on Protein A, antigen 400 nM
T5 construct: Bought protein; also called hHER3-His; not shown: His tag
Method: (§2) Purified antibodies were captured on the Protein A chip (Series S Sensor Chip Protein A) for the detection. 2 μg/mL antibodies were loaded at 10 μL/min to bind to hHER3, fasHER3, hMET or fasMET (400 and 0 nM). The flow rate was 30 μL/min, the binding and dissociation time were set to 180 s and 400 s, respectively. The chip was regenerated after the last injection of each titration with a glycine solution ([…]) at 30 μL/min for 30 seconds.

[6] = biological target: T6, His-tagged monkey HER3 protein (fasHER3, Sino Biological, Inc., Cat #: 90043-K08H) (monkey); test: SPR, Ab captured on Protein A, antigen 400 nM
T6 construct: Bought protein
Method: as §2

[7] = biological target: T7, His-tagged human MET (hMET, Sino Biological, Inc., Cat #: 10692-H08H) (human, UniProt P08581 25-932); test: SPR, Ab captured on Protein A, antigen 400 nM
T7 construct: Bought protein; not shown: His tag
T7 sequence (P08581 25-932 limits assumed): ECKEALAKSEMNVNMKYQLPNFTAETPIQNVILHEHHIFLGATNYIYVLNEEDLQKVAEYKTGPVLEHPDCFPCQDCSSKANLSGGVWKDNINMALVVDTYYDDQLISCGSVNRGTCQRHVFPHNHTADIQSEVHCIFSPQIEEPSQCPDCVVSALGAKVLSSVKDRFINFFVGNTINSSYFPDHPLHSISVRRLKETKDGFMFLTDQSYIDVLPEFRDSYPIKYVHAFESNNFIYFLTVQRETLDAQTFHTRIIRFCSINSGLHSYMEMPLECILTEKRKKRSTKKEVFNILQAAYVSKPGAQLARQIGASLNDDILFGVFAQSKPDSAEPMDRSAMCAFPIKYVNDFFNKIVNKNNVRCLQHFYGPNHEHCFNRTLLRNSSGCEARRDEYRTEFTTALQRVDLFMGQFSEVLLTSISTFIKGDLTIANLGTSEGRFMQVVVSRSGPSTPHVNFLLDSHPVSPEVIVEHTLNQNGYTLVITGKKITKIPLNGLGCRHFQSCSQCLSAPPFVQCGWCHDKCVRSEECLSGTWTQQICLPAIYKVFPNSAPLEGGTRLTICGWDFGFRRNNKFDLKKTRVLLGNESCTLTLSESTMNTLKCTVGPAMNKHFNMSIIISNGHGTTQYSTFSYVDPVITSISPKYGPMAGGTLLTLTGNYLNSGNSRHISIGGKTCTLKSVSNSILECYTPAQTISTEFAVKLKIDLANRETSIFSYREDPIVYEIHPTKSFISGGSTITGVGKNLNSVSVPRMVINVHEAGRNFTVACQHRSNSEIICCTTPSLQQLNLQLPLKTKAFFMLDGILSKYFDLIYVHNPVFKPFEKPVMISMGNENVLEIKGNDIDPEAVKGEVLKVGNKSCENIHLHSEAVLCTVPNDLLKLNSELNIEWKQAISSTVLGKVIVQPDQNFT
Method: as §2

Positive Cells [1] [%] | Positive Cells [2] [%] | Positive Cells [3] [%] | Positive Cells [4] [%] | Kd [5] [nM] | koff [5] [s⁻¹] | kon [5] [M⁻¹ s⁻¹] | Kd [6] [nM] | koff [6] [s⁻¹] | kon [6] [M⁻¹ s⁻¹] | Kd [7] [nM] | koff [7] [s⁻¹] | kon [7] [M⁻¹ s⁻¹] | Binder
72.1 | 66 | 99.7 | 54.6 | 14.5 | 0.00332 | 229000 | 32.2 | 0.00318 | 98700 | 12.7 | 0.00516 | 408000 | anti-HER3/MET bispecific antibody 3E1-8H10 (bispecific antibody, V domains shown) VH 1: EVQLVQSGPVLAKPTETLTLTCTVSGFSLSNIRMGVSWIRQPPGKALEWLAHIFSNDDKSYSPSLKNRLTISKDTSKSQVVLTMTTMDPMDTATYYCTRMKYSGGPFDYWGQGTLVTVSS VH 2: QVQLQQWGAGLLKPSETLSLTCAVYGGSFSGYYWTWIRQPPGKGLEWIGESNHGGSTNFNPSLKSRVTISVDTSKNHFSLKLSPVTAADTAVYYCTRGGTIFGLKDAFDIWGQGTMVTVSS VL: not shown
67.9 | 64.4 | 99.8 | 57.2 | 16.9 | 0.00265 | 157000 | 38.7 | 0.00263 | 67800 | 10.9 | 0.00626 | 574000 | anti-HER3/MET bispecific antibody 1B2-8H10 (bispecific antibody, V domains shown) VH 1: QVQLVQSGPVLVKPTETLTLTCTVSTFSLSNARMGVSWIRQPPGKALEWLAHIFSNDDKSYSPSLKSRLTISKDTSKTQVVLTMTNMDPVDTATYYCSRMRYSGGPFDYWGQGSLVTVSS VH 2: QVQLQQWGAGLLKPSETLSLTCAVYGGSFSGYYWTWIRQPPGKGLEWIGESNHGGSTNFNPSLKSRVTISVDTSKNHFSLKLSPVTAADTAVYYCTRGGTIFGLKDAFDIWGQGTMVTVSS VL: not shown
64.8 | 60.4 | 99.8 | 65.1 | 31.1 | 0.000605 | 19400 | 97 | 0.000671 | 6920 | 22.5 | 0.000531 | 23600 | anti-HER3/MET bispecific antibody 1C5-8D9 (bispecific antibody, V domains shown) VH 1: QVQLVESGGGVVQPGKSLRLSCAASGFTFSRSGMHWVRQAPGKGLEWVALISFDGSNKYYADSVKGRFTISRDNSKNTLNLQMNSLRAEDTAVYYCAKGGFGVVIYDAFDIWGHGTMVTVSS VH 2: QVQLQESGPGLVKPSETLSLTCTVSGGSISGHYWSWIRQSPGKGLEWIGYITYSGSTNYNPSLKSRVTISVDTSKNQFSLKLSSVTAADTAVYYCGTIAVAGRVYYYGVDVWGRGTTVTVSS VL: not shown
67.3 | 58.9 | 99.8 | 54.8 | 28.5 | 0.000593 | 20800 | 81.5 | 0.000655 | 8040 | 12.8 | 0.00427 | 333000 | anti-HER3/MET bispecific antibody 1C5-8H10 (bispecific antibody, V domains shown) VH 1: QVQLVESGGGVVQPGKSLRLSCAASGFTFSRSGMHWVRQAPGKGLEWVALISFDGSNKYYADSVKGRFTISRDNSKNTLNLQMNSLRAEDTAVYYCAKGGFGVVIYDAFDIWGHGTMVTVSS VH 2: QVQLQQWGAGLLKPSETLSLTCAVYGGSFSGYYWTWIRQPPGKGLEWIGESNHGGSTNFNPSLKSRVTISVDTSKNHFSLKLSPVTAADTAVYYCTRGGTIFGLKDAFDIWGQGTMVTVSS VL: not shown
56 | 54.9 | 99.7 | 68.4 | 29.3 | 0.000548 | 18700 | 103 | 0.000582 | 5630 | 44.2 | 0.00282 | 63800 | anti-HER3/MET bispecific antibody 1C5-2F11 (bispecific antibody, V domains shown) VH 1: QVQLVESGGGVVQPGKSLRLSCAASGFTFSRSGMHWVRQAPGKGLEWVALISFDGSNKYYADSVKGRFTISRDNSKNTLNLQMNSLRAEDTAVYYCAKGGFGVVIYDAFDIWGHGTMVTVSS VH 2: EVQLVESGPGLVKPSETLSLTCTVSGGSISSNYWSWIRQPPGKGLEWIGYIYHSGSTNYNPSLKSRVTISVDTSKNQFSLKLSSVTAADTAVYFCARGPVSIFGVVKYIDLWGRGTLVTVSS VL: not shown
